{
  "source": "the RNAGym collection of RNA variant scans (doi:10.7554/elife.80360)",
  "parents": {"B1": {"name": "CPEB3 Ribozyme (parent)", "chain": "GGGGGCCACAGCAGAAGCGUUCACGUCGCGGCCCCUGUCAGAUUCUGGUGAAUCUGCGAAUUCUGCUGU"}},
  "data": [
    {"variants_of": "B1", "assay": "self-cleavage, relative activity (ratio to wild type); higher = more cleavage; co-transcriptional", "values": [
      {"variant": "A23U U64G", "self-cleavage": 0.917},
      {"variant": "A23U C63A", "self-cleavage": 0.886},
      {"variant": "A23U C63U", "self-cleavage": 1.01},
      {"variant": "A23U C63G", "self-cleavage": 0.858},
      {"variant": "A23U C54A", "self-cleavage": 0.901},
      {"variant": "A23U C54U", "self-cleavage": 1.02},
      {"variant": "A23U C54G", "self-cleavage": 0.943},
      {"variant": "C24A A59U", "self-cleavage": 0.267},
      {"variant": "C24A A59G", "self-cleavage": 0.731},
      {"variant": "A23U A59G", "self-cleavage": 0.972},
      {"variant": "C24G A42U", "self-cleavage": 0.418},
      {"variant": "C24G A42G", "self-cleavage": 0.404},
      {"variant": "A23U U53A", "self-cleavage": 0.903},
      {"variant": "A23U U53C", "self-cleavage": 0.928},
      {"variant": "A23U U53G", "self-cleavage": 0.959},
      {"variant": "A23U C45U", "self-cleavage": 0.975},
      {"variant": "A23U U36C", "self-cleavage": 0.996},
      {"variant": "A23U U36G", "self-cleavage": 0.35},
      {"variant": "A23U U36A", "self-cleavage": 0.222},
      {"variant": "C24U G31A", "self-cleavage": 0.316},
      {"variant": "C24U C54U", "self-cleavage": 0.808},
      {"variant": "C24U C54A", "self-cleavage": 0.561},
      {"variant": "C24G G50U", "self-cleavage": 0.441},
      {"variant": "C24G G50A", "self-cleavage": 0.392},
      {"variant": "C24G G50C", "self-cleavage": 0.347},
      {"variant": "C24A U49A", "self-cleavage": 0.815},
      {"variant": "C24A G56C", "self-cleavage": 0.31},
      {"variant": "C24A G56A", "self-cleavage": 0.52},
      {"variant": "C24A G56U", "self-cleavage": 0.576},
      {"variant": "A23G U64A", "self-cleavage": 0.753},
      {"variant": "C24U C45A", "self-cleavage": 0.743},
      {"variant": "C24U C45G", "self-cleavage": 0.776},
      {"variant": "A23U G25U", "self-cleavage": 0.144},
      {"variant": "A23U G25C", "self-cleavage": 0.185},
      {"variant": "A23U G25A", "self-cleavage": 0.214},
      {"variant": "A23U G41U", "self-cleavage": 0.868},
      {"variant": "A23U G41C", "self-cleavage": 0.912},
      {"variant": "A23U G41A", "self-cleavage": 0.821},
      {"variant": "C24G G58A", "self-cleavage": 0.247},
      {"variant": "C24G G58C", "self-cleavage": 0.248},
      {"variant": "C24G A51C", "self-cleavage": 0.323},
      {"variant": "C24G A51G", "self-cleavage": 0.515},
      {"variant": "C24U C34A", "self-cleavage": 0.263},
      {"variant": "C24U C34U", "self-cleavage": 0.858},
      {"variant": "C24U C34G", "self-cleavage": 0.283},
      {"variant": "A23U G30A", "self-cleavage": 0.96},
      {"variant": "A23U G30C", "self-cleavage": 0.786},
      {"variant": "A23U G30U", "self-cleavage": 0.547},
      {"variant": "C24G U55A", "self-cleavage": 0.36},
      {"variant": "C24G U55G", "self-cleavage": 0.191},
      {"variant": "C24G G41C", "self-cleavage": 0.18},
      {"variant": "A23U C32G", "self-cleavage": 0.71},
      {"variant": "A23U C32U", "self-cleavage": 1.01},
      {"variant": "C24G C27G", "self-cleavage": 0.192},
      {"variant": "C24G C27U", "self-cleavage": 0.149},
      {"variant": "C24G C27A", "self-cleavage": 0.201},
      {"variant": "A23U U62A", "self-cleavage": 0.635},
      {"variant": "C24G C39U", "self-cleavage": 0.217},
      {"variant": "C24U A42U", "self-cleavage": 0.654},
      {"variant": "C24U A42G", "self-cleavage": 0.631},
      {"variant": "C24U C29U", "self-cleavage": 0.143},
      {"variant": "C24U C29G", "self-cleavage": 0.246},
      {"variant": "C24U C29A", "self-cleavage": 0.292},
      {"variant": "C24G C66G", "self-cleavage": 0.28},
      {"variant": "C24G C66A", "self-cleavage": 0.24},
      {"variant": "C24A G68U", "self-cleavage": 0.834},
      {"variant": "C24A G68A", "self-cleavage": 0.87},
      {"variant": "A23U U55C", "self-cleavage": 0.953},
      {"variant": "A23U C35G", "self-cleavage": 0.658},
      {"variant": "A23U C35U", "self-cleavage": 0.974},
      {"variant": "A23U", "self-cleavage": 1},
      {"variant": "C24A G58U", "self-cleavage": 0.773},
      {"variant": "C24A G58A", "self-cleavage": 0.4},
      {"variant": "C24G U26C", "self-cleavage": 0.386},
      {"variant": "C24A U55G", "self-cleavage": 0.289},
      {"variant": "C24G C34G", "self-cleavage": 0.184},
      {"variant": "C24G C34A", "self-cleavage": 0.271},
      {"variant": "C24G C34U", "self-cleavage": 0.57},
      {"variant": "C24G C29A", "self-cleavage": 0.184},
      {"variant": "C24G G31A", "self-cleavage": 0.185},
      {"variant": "C24G G31C", "self-cleavage": 0.134},
      {"variant": "C24A G25U", "self-cleavage": 0.17},
      {"variant": "C24A G25A", "self-cleavage": 0.13},
      {"variant": "C24A G25C", "self-cleavage": 0.122}
    ]}
  ]
}
